Measurements as given in paper PMC4946879.

Assays:
[1] = molecular target: HIV-1 Gag CTD-SP1 (residues 281–377 of HIV-1 NL4-3 Gag, P373T) (HIV-1 NL4-3); assay: crystal structure; plate crystals of stacked flat hexagonal lattices; 0.1 M Bis-Tris propane, pH 7-8, 0.8-1.0 M LiSO4; sitting drops, 1:2 protein:precipitant; 3.27 Å
[2] = molecular target: HIV-1 Gag CTD-SP1 (residues 281–377 of HIV-1 NL4-3 Gag, P373T) (HIV-1 NL4-3); assay: crystal structure; other crystal hits from screens with commercial and in-house precipitants; mature-like dimer form of the CTD with disordered SP1 tails; not deposited

## HIV-1 Gag CTD-SP1 (residues 281–377 of HIV-1 NL4-3 Gag, P373T) (domain or fragment)
[1]
  stoichiometry N: 6
[2]
  stoichiometry N: 2
